{
  "source": "paper doi:10.1101/2021.09.16.460643",
  "about": "(bioRxiv, 2021)",
  "key": {"[1]": {"target": "receiver domain of ARABIDOPSIS … KINASE 5 (AHK5RD), labelled with Alexa Fluor-488 (Arabidopsis thaliana) (UniProt Q3S4A7)", "assay": "MST"}, "[2]": {"target": "T1, ETR1 fragment comprising both HK and RD domain (ETR1HK-RD) (Arabidopsis thaliana, UniProt P49333 324-738)", "T1 sequence (looked up)": "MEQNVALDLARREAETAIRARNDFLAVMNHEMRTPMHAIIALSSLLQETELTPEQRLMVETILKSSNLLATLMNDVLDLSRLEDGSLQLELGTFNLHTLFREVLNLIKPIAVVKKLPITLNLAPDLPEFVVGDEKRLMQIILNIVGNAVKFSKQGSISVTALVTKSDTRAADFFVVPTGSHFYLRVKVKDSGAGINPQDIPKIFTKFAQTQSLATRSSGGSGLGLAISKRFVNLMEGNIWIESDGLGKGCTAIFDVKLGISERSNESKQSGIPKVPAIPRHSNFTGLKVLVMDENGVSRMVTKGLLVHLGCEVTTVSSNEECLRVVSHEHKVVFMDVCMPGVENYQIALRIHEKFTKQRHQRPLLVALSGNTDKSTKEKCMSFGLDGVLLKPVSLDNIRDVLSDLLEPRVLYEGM", "assay": "MST"}},
  "data": [
    {"molecule": "histidine kinase domain of ETHYLENE RESPONSE 1 (ETR1HK) (domain or fragment)", "values": [
      {"measurement": "Kd", "setting": "[1]", "value": 166, "unit": "µM"}
    ]},
    {"molecule": "receiver domain of ARABIDOPSIS … KINASE 5 (AHK5RD), labelled with Alexa Fluor-488 (domain or fragment, Arabidopsis thaliana, Alexa Fluor-488 label (site not stated; printed as Alexa-Fluor 484 in the anisotropy methods)) ETSKPKILLVEDNKINIMVAKSMMKQLGHTMDIANNGVEAITAINSSSYDLVLMDVCMPVLDGLKATRLIRSYEETGNWNAAIEAGVDISTSENEQVCMRPTNRLPIIAMTANTLAESSEECYANGMDSFISKPVTLQKLRECLQQYLH", "values": [
      {"measurement": "Kd", "setting": "[2]", "value": "167 ± 50", "unit": "µM"}
    ]}
  ]
}
